Experimental findings from PMC2917274, “Structure of Staphylococcus aureus adenylosuccinate lyase (PurB) and assessment of its potential as a target for structure-based inhibitor discovery” (Acta Crystallographica Section D: Biological Crystallography, 2010) are described below.

The term stoichiometry N denotes a count of units in the complex or per binding partner.

In one data set the target is T1, SaPurB (Staphylococcus aureus, UniProt Q7A0G9).
T1 construct: gene purB; full length (domains described over residues 1-431); N-terminal His tag removed by TEV protease (modified pET15b); expressed in E. coli BL21(DE3) pLysS; dimer in gel filtration, homotetramer in crystal, each active site from three subunits
T1 sequence (Q7A0G9 1-431): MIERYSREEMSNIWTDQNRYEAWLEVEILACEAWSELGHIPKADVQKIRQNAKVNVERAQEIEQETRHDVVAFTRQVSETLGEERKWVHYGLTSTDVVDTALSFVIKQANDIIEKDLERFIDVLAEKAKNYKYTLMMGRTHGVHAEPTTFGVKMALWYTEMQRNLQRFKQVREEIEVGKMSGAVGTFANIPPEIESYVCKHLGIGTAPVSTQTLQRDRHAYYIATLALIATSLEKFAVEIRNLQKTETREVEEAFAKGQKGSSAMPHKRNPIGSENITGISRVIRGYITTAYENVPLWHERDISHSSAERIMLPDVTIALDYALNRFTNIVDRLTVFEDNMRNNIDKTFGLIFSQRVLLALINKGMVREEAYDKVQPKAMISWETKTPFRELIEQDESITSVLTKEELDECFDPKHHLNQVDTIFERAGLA
The experiment in a line: X-ray crystal structure, […] Å. It is filed as binding. To be noted: co-crystallized with 25 mM AMP, pH 6.2, 293 K; active site; oxalate tentatively modelled nearby.

Data set [1] deals with the molecule itself. The data set can be described thus: SEC; Superdex 200 26/60, 50 mM Tris-HCl, 250 mM NaCl pH 7.5, column calibrated with molecular-weight standards; final stage of purification. A general note: SEC sorts molecules by how far they enter the pores of the column.
Data set [2] concerns the molecule itself. The experiment in a line: crystal structure; 2.5 A, space group I222, one chain per asymmetric unit, tetramer built by crystallographic twofold axes; with AMP and oxalate; crystals at 293 K from 45% PEG 200, 0.2 M NaCl, 0.1 M sodium phosphate pH 6.2.

For the molecule `Nc1ncnc2c1ncn2[C@@H]1O[C@H](COP(=O)(O)O)[C@@H](O)[C@H]1O` [AMP], at SaPurB, the “X-ray crystal structure, 2.5 Å” value was “The structure of AMP in the active site of SaPurB”.

B1: Staphylococcus aureus adenylosuccinate lyase (PurB) (enzyme, UniProt Q2FFI7 1-431, looked up)
chain: T1 sequence (Q7A0G9 1-431)
notes: domains I-III span residues 1-431; theoretical subunit mass 49.6 kDa; Vector pET15b changed to carry a TEV site in place of the thrombin site; Dimer by gel filtration, tetramer in the crystal; also called SaPurB
Take B1: the figures for the “stoichiometry N” value in data set [1] and in data set [2] were 2 and 4, respectively.
